Laboratory results as given in article PMC5667506, “Potent and selective inhibition of SH3 domains with dirhodium metalloinhibitors” (Chemical Science, 2015).
Values belong to the substance of their own block, whether it stands above or below them. Rh2(OAc)3 = dirhodium(II) triacetate, bound to the side-chain carboxylate

Key:
Lyn SH3 H96A mutant = biological target: T1, Lyn SH3 H96A mutant (Homo sapiens, UniProt P07948, H96A); assay: Binding to Lyn SH3 H96A mutant; conditions: read-out: affinity
T1 construct: The lyn SH3 domain was amplified by PCR using Phusion DNA polymerase; GST (N, cleaved yes); made in house; host or cells: E. coli BL21 (DE3)
T1 sequence (P07948 63-123 H96A limits assumed): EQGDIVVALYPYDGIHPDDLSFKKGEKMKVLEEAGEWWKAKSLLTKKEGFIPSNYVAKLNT
Experimental: (§1) The remarkable 6 nM affinity, far stronger than that of any reported non-protein ligand for SH3 domains, led us to study the structural basis of the observed affinity. […] The H78A and H96A double mutant binds much more weakly (>5 μM). […] That the majority of the stabilization energy comes from the first histidine coordination is consistent with the negative cooperativity generally seen for axial coordination to rhodium(II): a second coordination in solution is roughly two orders of magnitude less favorable.[40]–[43]
(§2) Abl SH3 domain preparation. The abl SH3 domain was amplified by PCR using Phusion DNA polymerase (Finnzymes). The
(§3) reactions were performed following manufacture's protocol with Phusion HF buffer and 5% DMSO. Primers were designed as
(§4) follows: 5'-[…]-3' (BamHI site underlined) and a reverse primer, 5'-
(§5) -3' (EcoRI site underlined). The resultant product was digested with
(§6) BamHI and EcoRI and subcloned into BamHI-EcoRI sites of pGex-KTO. Confirmed PCR fidelity by sequencing.
(§7) Hck SH3 domain preparation. The hck SH3 domain was amplified by PCR using Phusion DNA polymerase (Finnzymes). The
(§8) Lyn SH3 domain preparation. The lyn SH3 domain was amplified by PCR using Phusion DNA polymerase (Finnzymes). The […]
(§9) assessed by SDS-PAGE using 12% Bis-Tris gels (Invitrogen). […]
(§10) concentrated, and aliquoted for storage at –80 °C. Concentration was determined using the absorbance at 280 nm (NanoDrop, […]

[1] = biological target: T2, Lyn SH3 H78A and H96A double mutant (Homo sapiens, UniProt P07948, H78A/H96A); assay: Binding to Lyn SH3 H78A and H96A double mutant; conditions: read-out: affinity
T2 construct: The lyn SH3 domain was amplified by PCR using Phusion DNA polymerase; GST (N, cleaved yes); made in house; host or cells: E. coli BL21 (DE3)
T2 sequence (P07948 63-123 H78A/H96A limits assumed): as the sequence (P07948 63-123 H96A limits assumed) above, with H16A counted along it
Experimental: as §1, §2, §3, §4, §5, §6, §7, §8, §9, §10

Lyn SH3 H78A mutant = biological target: T3, Lyn SH3 H78A mutant (Homo sapiens, UniProt P07948, H78A); assay: Binding to Lyn SH3 H78A mutant; conditions: read-out: affinity
T3 construct: The lyn SH3 domain was amplified by PCR using Phusion DNA polymerase; GST (N, cleaved yes); made in house; host or cells: E. coli BL21 (DE3)
T3 sequence (P07948 63-123 H78A limits assumed): as the sequence (P07948 63-123 H96A limits assumed) above, with H16A, A34H counted along it
Experimental: as §1, §2, §3, §4, §5, §6, §7, §8, §9, §10

Fyn SH3 domain = biological target: Fyn SH3 domain; design: method as in PMID 22621321; conditions: Fyn SH3, ITC; previously reported ref 52; cited from earlier work

Kd (Lyn SH3 H96A mutant): 39 nM
Kd [1]: > 5000 nM
Substance: AcVELARRPLPPLPN-NH2 (Ac-VELARRPLPPLPN-NH2; also: Glu2 side-chain carboxylate bound to Rh2(OAc)3) [S2E^Rh, rhodium(II) metallopeptide made from S2E peptide (Ac…-NH2) and Rh2(tfa)(OAc)3]

Kd (Lyn SH3 H78A mutant): 20 nM
Substance: AcVELARRPLPPLPN-NH2 (Ac-VE(Rh2(OAc)3)LARRPLPPLPN-NH2; also: metal complex: Glu2 carboxylate bound to dirhodium(II) triacetate) [S2E^Rh, rhodium(II) metallopeptide made from S2E peptide (Ac…-NH2) and Rh2(tfa)(OAc)3]

Substance: AcVELARRPLPPLPN-NH2 [S2E^Rh]
Kd (Fyn SH3 domain): 769 nM
